Patent US20120128758A1

What was measured:
[1] = molecular target: TND-669S HIV-1 envelope (HIV-1); test: cell-based or functional assay
[2] = molecular target: TND-669L HIV-1 envelope (HIV-1); test: cell-based or functional assay
[3] = molecular target: SP62 (gp41 652-671)-GTH1 peptide anchored to liposomes; test: SPR, peptide anchored to phospholipid liposomes
[4] = molecular target: SP62-L669S (gp41 652-671)-GTH1 peptide anchored to liposomes; test: SPR, peptide anchored to phospholipid liposomes
[5] = molecular target: SP62 (gp41 652-671)-GTH1 peptide anchored to liposomes; test: SPR on peptide-liposomes, encounter-docking (two-step) model, forward rate of the docking step; row '2F5 peptide liposome'
[6] = molecular target: SP62 (gp41 652-671)-GTH1 peptide anchored to liposomes; test: SPR on peptide-liposomes, encounter-docking (two-step) model, reverse rate of the docking step; row '2F5 peptide liposome'
[7] = molecular target: SP62 (gp41 652-671)-GTH1 peptide anchored to liposomes; test: SPR on peptide-liposomes, encounter-docking (two-step) model, association of the encounter step; row '2F5 peptide liposome'
[8] = molecular target: SP62 (gp41 652-671)-GTH1 peptide anchored to liposomes; test: SPR on peptide-liposomes, encounter-docking (two-step) model, dissociation of the encounter step; row '2F5 peptide liposome'
[9] = molecular target: SP62-L669S (gp41 652-671)-GTH1 peptide anchored to liposomes; test: SPR on peptide-liposomes, encounter-docking (two-step) model, forward rate of the docking step; row 'L669S 2F5 peptide liposome'
[10] = molecular target: SP62-L669S (gp41 652-671)-GTH1 peptide anchored to liposomes; test: SPR on peptide-liposomes, encounter-docking (two-step) model, reverse rate of the docking step; row 'L669S 2F5 peptide liposome'
[11] = molecular target: SP62-L669S (gp41 652-671)-GTH1 peptide anchored to liposomes; test: SPR on peptide-liposomes, encounter-docking (two-step) model, association of the encounter step; row 'L669S 2F5 peptide liposome'
[12] = molecular target: SP62-L669S (gp41 652-671)-GTH1 peptide anchored to liposomes; test: SPR on peptide-liposomes, encounter-docking (two-step) model, dissociation of the encounter step; row 'L669S 2F5 peptide liposome'

## mAb 447-52D (antibody)
[1]
  enhancement of neutralization sensitivity against TND-669L: > 161 fold
  neutralization of Env-pseudovirus, IC50: 0.31 µg/mL

## mAb 4E10 (antibody)
[2]
  mean IC50, neutralisation of Env-pseudovirus on JC53-BL cells: 8.49 µg/mL
[1]
  fold lower neutralisation IC50 against TND-669S than against TND-669L: 275 fold
  mean IC50, neutralisation of Env-pseudovirus on JC53-BL cells: 0.031 µg/mL

## mAb 17b (antibody)
[1]
  increase in neutralization sensitivity against TND-669L: 2 fold

## mAb 2F5 (antibody)
[2]
  mean IC50, neutralisation of Env-pseudovirus on JC53-BL cells: 3.92 µg/mL
[1]
  mean IC50, neutralisation of Env-pseudovirus on JC53-BL cells: 0.014 µg/mL
[3]
  response unit at 10 seconds after the injection was stopped: 495 RU
[4]
  response unit (background subtracted) at 10 seconds after the injection was stopped: 617 RU
[5]
  ka2: 0.0181 s⁻¹
[6]
  kd2: 0.00037 s⁻¹
[7]
  ka1: 931000 M⁻¹ s⁻¹
[8]
  kd1: 0.00692 s⁻¹
[9]
  ka2: 0.0054 s⁻¹
[10]
  kd2: 2e-05 s⁻¹
[11]
  ka1: 498000 M⁻¹ s⁻¹
[12]
  kd1: 0.00119 s⁻¹
